Measurements: patent US5344777

Biological target: protein having a molecular weight of about 44,000 which constitutes the membrane-bound alcohol dehydrogenase complex of Acetobacter altoacetigenes MH-24 (cytochrome c) (Acetobacter altoacetigenes MH-24)

“protein having a molecular weight of about 72,000 which constitutes the membrane-bound alcohol dehydrogenase complex of Acetobacter altoacetigenes MH-24 (enzyme)” showed an ADH enzyme activity (U/mg protein) in cell homogenate of transformed ADH-deleted mutant 10-80 of 0.4 U/mg protein.
